Where a chain is given by its changes, count along the chain named. Names and notes keep the numbering of the source.
B1: t-PA/R275E, single-chain form (enzyme)
chain: SYQVICRDEKTQMIYQQHQSWLRPVLRSNRVEYCWCNSGRAQCHSVPVKSCSEPRCFNGGTCQQALYFSDFVCQCPEGFAGKCCEIDTRATCYEDQGISYRGTWSTAESGAECTNWNSSALAQKPYSGRRPDAIRLGLGNHNYCRNPDRDSKPWCYVFKAGKYSSEFCSTPACSEGNSDCYFGNGSAYRGTHSLTESGASCLPWNSMILIGKVYTAQNPSAQALGLGKHNYCRNPDGDAKPWCHVLKNRRLTWEYCDVPSCSTCGLRQYSQPQFEIKGGLFADIASHPWQAAIFAKHRRSPGERFLCGGILISSCWILSAAHCFQERFPPHHLTVILGRTYRVVPGEEEQKFEVEKYIVHKEFDDDTYDNDIALLQLKSDSSRCAQESSVVRTVCLPPADLQLPDWTECELSGYGKHEALSPFYSERLKEAHVRLYPSSRCTSQHLLNRTVTDNMLCAGDTRSGGPQANLHDACQGDSGGPLVCLNDGRMTLVGIISWGLGCGQKDVPGVYTKVTNYLDWIRDNMRP
notes: Noncleavable single-chain enzyme, secreted from COS-1 cells only as a single chain
B2: t-PA/R275E,H417D, single-chain form (enzyme)
chain: B1 chain with H417D
B3: t-PA/R275E,H417E, single-chain form (enzyme)
chain: B1 chain with H417E

What follows are binders tested against plasminogen activator inhibitor, type 1 (PAI-1) (UniProt P05121 24-402) (assay: enzyme preincubated with PAI-1 under pseudo-first order conditions at 23 degrees Celsius; residual activity read in indirect chromogenic assay).
Procedure: Second order rate constants for the inhibition of wild type human t-PA and variant t-PA were measured under pseudo-first order conditions as previously described. Briefly, enzyme and inhibitor were preincubated at 23 degrees Celsius for periods of time varying from 0–30 minutes. Following preincubation, the mixtures were diluted, and the residual enzymatic activity was measured in a standard indirect chromogenic assay. For each enzyme, the concentrations of enzyme and inhibitor and the times of preincubation were chosen to yield several data points for which the residual enzymatic activity varied between 20% and 80% of the initial activity. Data were analyzed by plotting the natural logarithm of the ratio (residual activity/initial activity) versus time of preincubation and measuring the resulting slopes. Division of this slope by –[I] yielded the second order rate constants shown.

Chain of plasminogen activator inhibitor, type 1 (PAI-1) (P05121 24-402 limits assumed): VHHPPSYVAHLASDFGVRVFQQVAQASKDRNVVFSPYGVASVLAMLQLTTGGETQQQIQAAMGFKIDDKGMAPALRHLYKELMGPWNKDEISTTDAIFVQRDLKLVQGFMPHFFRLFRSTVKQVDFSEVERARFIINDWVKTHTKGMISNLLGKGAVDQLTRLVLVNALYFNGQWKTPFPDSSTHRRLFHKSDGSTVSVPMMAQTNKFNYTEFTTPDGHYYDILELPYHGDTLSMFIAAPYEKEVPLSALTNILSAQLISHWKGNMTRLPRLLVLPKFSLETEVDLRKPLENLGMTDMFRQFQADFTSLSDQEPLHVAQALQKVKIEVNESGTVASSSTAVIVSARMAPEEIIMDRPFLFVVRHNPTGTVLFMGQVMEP

| Binder | Second Order Rate Constant for inhibition by PAI-1 |
| --- | --- |
| B1 | 1.8e+06 M⁻¹ s⁻¹ |
| B2 | 150000 M⁻¹ s⁻¹ |
| B3 | 210000 M⁻¹ s⁻¹ |

Reference: patent US6869778 (Scripps Research, dated 2005)
